Numbered stars: 1 amine (or outer) side, 2 acyl side, 3 side chain; on linkers, the order of the positions; unused ones are H or OH. Bridge positions count the residues as written; N and C are the ends. Square brackets hold non-standard residues; d marks the D form. * marks the point of attachment. Ala(piperidin-4-yl) = O=C([C@H](CC1CCN([*:3])CC1)N[*:1])[*:2]; DOTA = O=C(O)CN1CCN(CC(=O)O)CCN(CC(=O)*)CCN(CC(=O)O)CC1; Ala(morpholin-4-yl) = N[C@@H](CN1CCOCC1)C(=O)O; 2Nal = N[C@@H](Cc1ccc2ccccc2c1)C(=O)O; 4Pal = N[C@@H](Cc1ccncc1)C(=O)O
Assays:
DLL3 on SHP-77 cells = target: T1, DLL3 on SHP-77 cells (human, UniProt Q9NYJ7 27-618); experiment: 177Lu-peptide bound to SHP-77 cells, gamma counting; letter grade, key in paragraph 629
T1 construct: SHP-77 cells are human-derived, non-engineered SCLC cells
T1 sequence: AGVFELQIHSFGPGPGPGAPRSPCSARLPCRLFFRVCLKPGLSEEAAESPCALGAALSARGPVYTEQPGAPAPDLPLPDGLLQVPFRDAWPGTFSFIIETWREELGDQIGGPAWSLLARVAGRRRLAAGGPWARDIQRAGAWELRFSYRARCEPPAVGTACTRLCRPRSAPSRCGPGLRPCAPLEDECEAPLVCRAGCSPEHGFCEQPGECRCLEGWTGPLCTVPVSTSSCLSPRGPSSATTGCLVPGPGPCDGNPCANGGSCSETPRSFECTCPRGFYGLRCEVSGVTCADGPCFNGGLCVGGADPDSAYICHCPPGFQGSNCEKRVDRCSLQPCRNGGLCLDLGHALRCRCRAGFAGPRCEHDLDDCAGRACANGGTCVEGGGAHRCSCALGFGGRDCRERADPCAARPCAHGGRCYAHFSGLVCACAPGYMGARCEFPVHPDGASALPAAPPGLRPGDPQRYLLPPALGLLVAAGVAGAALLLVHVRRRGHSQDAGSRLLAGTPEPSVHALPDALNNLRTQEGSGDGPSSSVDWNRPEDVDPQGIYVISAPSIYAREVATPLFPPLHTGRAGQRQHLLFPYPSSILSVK
Description: (§1) The study was conducted using SHP-77, CT26.WT, and CT26.DLL3 cells (Table 7) Adherent cell studies: The cells were cultured in appropriate culture media (20 mL) in tissue culture treated T150 flasks at 37° C. and 5% CO2. Adherent cells were detached (60-70% confluent) using 5 mL Versene at 37° C. for 3 minutes. After confirming the viability using countess and count of detached cells using Trypan blue, the cells were centrifuged at 4° C. for 5 minutes (1,000 rpm). The cell pellet obtained was washed once with PBS and resuspended in 1% PBSA to obtain the desired cell concentration (5-25 million cells/mL).
(§2) Total uptake: Cells were incubated with 300 μL (0.8 μCi) of the incubation buffer (containing radiolabeled peptide [¹⁷⁷Lu] Lu-test peptide) for 1 hour at 37° C. (Table 8). Post incubation, the cells were pelleted and washed 2 times using cold PBS+1% BSA. The supernatant and washes were combined and counted together as “unbound fraction” in a gamma counter. The cells were then resuspended in 300 μL of 1% PBS+1% BSA and counted in the gamma counter as “bound fraction”.

DLL3 on CT26.DLL3 cells = target: T2, DLL3 on CT26.DLL3 cells (Homo sapiens (Human), UniProt Q9NYJ7 27-618); experiment: 177Lu-peptide bound to CT26.DLL3 cells, gamma counting; letter grade, key in paragraph 629
T2 construct: CT26.DLL3 are engineered cells to express DLL3
T2 sequence: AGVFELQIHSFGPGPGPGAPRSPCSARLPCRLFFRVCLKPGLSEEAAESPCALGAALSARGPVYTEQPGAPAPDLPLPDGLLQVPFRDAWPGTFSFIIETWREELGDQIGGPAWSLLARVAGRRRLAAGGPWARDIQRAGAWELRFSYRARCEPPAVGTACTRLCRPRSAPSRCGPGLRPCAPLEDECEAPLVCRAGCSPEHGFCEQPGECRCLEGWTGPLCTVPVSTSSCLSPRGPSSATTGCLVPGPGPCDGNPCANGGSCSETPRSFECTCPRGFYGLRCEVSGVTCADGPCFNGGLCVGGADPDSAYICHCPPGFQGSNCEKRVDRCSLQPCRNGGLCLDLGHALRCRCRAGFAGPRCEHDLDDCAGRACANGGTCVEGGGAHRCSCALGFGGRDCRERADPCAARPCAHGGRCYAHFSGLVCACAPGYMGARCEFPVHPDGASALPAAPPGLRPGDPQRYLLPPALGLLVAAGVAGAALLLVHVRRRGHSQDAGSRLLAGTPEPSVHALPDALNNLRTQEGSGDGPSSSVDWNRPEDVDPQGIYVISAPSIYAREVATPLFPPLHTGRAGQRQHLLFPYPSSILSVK
Description: as §1, §2

Row | Binder | % Binding (DLL3 on SHP-77 cells) [%] | % Binding (DLL3 on CT26.DLL3 cells) [%]
1 | Ac-WTICNN[2Nal]HDCWP[dK](DOTA)-NH2 (disulfide 4-10; also: 177Lu in the DOTA chelator, also called [177Lu]Lu-test peptide) [[177Lu]Lu-labelled Cpd No. 75] | ≤ 25 | –
2 | Ac-WTICNN[2Nal]HNCWP[dK](DOTA)-NH2 (disulfide 4-10; also: 177Lu chelated in DOTA, also called [177Lu]Lu-test peptide) [[177Lu]Lu-labelled Cpd No. 211] | – | ≤ 25
3 | Ac-WTICNN[2Nal]KDCWP[dK](DOTA)-NH2 (disulfide 4-10; also: 177Lu in the DOTA chelator, also called [177Lu]Lu-test peptide) [[177Lu]Lu-labelled Cpd No. 237] | – | ≤ 25
4 | Ac-WTICN[4Pal][2Nal]HDCWP[dK](DOTA)-NH2 (disulfide 4-10; also: 177Lu in the DOTA chelator, also called [177Lu]Lu-test peptide) [[177Lu]Lu-labelled Cpd No. 266] | – | ≤ 25

The remaining lines, values ahead:

Row | % Binding (DLL3 on SHP-77 cells) [%] | % Binding (DLL3 on CT26.DLL3 cells) [%] | Binder
5 | – | ≤ 25 | Ac-WTIC[Ala(morpholin-4-yl)]N[2Nal]HDCWP[dK](DOTA)-NH2 (disulfide 4-10; also: 177Lu in the DOTA chelator, also called [177Lu]Lu-test peptide) [[177Lu]Lu-labelled Cpd No. 261]
6 | – | ≤ 25 | Ac-WTICN[Ala(piperidin-4-yl)][2Nal]HDCWP[dK](DOTA)-NH2 (disulfide 4-10; also: 177Lu in the DOTA chelator, also called [177Lu]Lu-test peptide) [[177Lu]Lu-labelled Cpd No. 267]
7 | ≤ 25 | – | Ac-WTICNN[2Nal]HDCWP[dK](DOTA)-NH2 (bridge 4-10; also: 177Lu chelated in DOTA, also called [177Lu]Lu-test peptide) [[177Lu]Lu-labelled Cpd No. 165]
8 | ≤ 25 | – | Ac-WTICNN[2Nal]HDCWPK(DOTA)-NH2 (disulfide 4-10; also: 177Lu chelated in DOTA, also called [177Lu]Lu-test peptide) [[177Lu]Lu-labelled Cpd No. 166]

— patent US20250011368A1, “DLL3 TARGETING PEPTIDES AND CONSTRUCTS THEREOF” (MARIANA ONCOLOGY INC., priority 2023, published 2025)
